Measurements as given in the supplement of paper PMC10126150.
± gives the standard deviation of the averaged measurements.

System: ATP
Test: switch fluorescence ratio, 500 uM ATP over buffer (Cy3 cluster intensity, sum of 5 cycles each) (fold (ratio)); higher = stronger signal-on switching upon ATP binding; sequences stand for … in TCGTCGGCAGCGTCAGATGTGTATAAGAGACAGTTTTTTTTTTTTTTTTTTTTTTTTT…TC
Conditions: aptamer strand: ATP DNA aptamer (quencher-CACCTGGGGGAGTATTGCGGAGGAAGG + anchor), 100 nM annealed; ATP concentration: 500 uM
Method in brief: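 Imaging in selection buffer was followed by imaging after 15 min with 500 uM ATP at 22 °C, for Cy3-labelled switching-strand clusters annealed to 100 nM quencher-labelled ATP aptamer on a modified Illumina MiSeq flow-cell. Five of these buffer/ATP cycles ran, separated by NaOH stripping and re-annealing. The fluorescence ratio per cluster is summed target-cycle over summed buffer-cycle Cy3 intensity, averaged per switch-domain sequence; clusters outside 100-1000 RFU were removed.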
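Also: ATP exposure 15 min at 22 °C before imaging.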

With GCCGGGACCG the switch fluorescence ratio was 1.024 ± 0.01.
In the case of GCCGGGACGG, the switch fluorescence ratio is reported as 0.965 ± 0.022.
In the case of GCCGGGATGC, the switch fluorescence ratio is reported as 1.1 ± 0.11.
Sequence GCCGGGGGTA has a switch fluorescence ratio of 1.04 ± 0.079.
GCCGGGTCCG showed a switch fluorescence ratio of 0.9938 ± 0.0011.
Work on GCCGGTCTGT yielded a switch fluorescence ratio of 1.01 ± 0.03.
For GCCGGTGGAT, the switch fluorescence ratio was 0.9793 ± 0.0084.
GCCGGTGTTT showed a switch fluorescence ratio of 1.02 ± 0.036.
GCCGTAAGGA was tested, and the switch fluorescence ratio was 1.06 ± 0.033.
In the case of GCCGTAGCTC, the switch fluorescence ratio is reported as 1.2 ± 0.078.
GCCGTAGTAA was tested, and the switch fluorescence ratio was 1.68 ± 0.011.
GCCGTATGG was tested, and the switch fluorescence ratio was 0.997 ± 0.012.
GCCGTCGGCA showed a switch fluorescence ratio of 1 ± 0.017.
Work on GCCGTCTGCG yielded a switch fluorescence ratio of 0.957 ± 0.011.
With GCCGTGAGAG the switch fluorescence ratio was 0.9842 ± 0.0013.
Sequence GCCGTGGAGA has a switch fluorescence ratio of 1.03 ± 0.021.
For GCCGTTAGCG, the switch fluorescence ratio was 1.02 ± 0.049.
In the case of GCCGTTGGAA, the switch fluorescence ratio is reported as 1.01 ± 0.024.
In the case of GCCGTTTTAC, the switch fluorescence ratio is reported as 1.17 ± 0.05.
In the case of GCCTAAAGTT, the switch fluorescence ratio is reported as 0.988 ± 0.015.
Work on GCCTAGGCGG yielded a switch fluorescence ratio of 1.01 ± 0.062.
With GCCTCACCCG the switch fluorescence ratio was 1.26 ± 0.016.
Work on GCCTCTATTT yielded a switch fluorescence ratio of 0.968 ± 0.019.
GCCTGCGGGG showed a switch fluorescence ratio of 1.04 ± 0.046.
In the case of GCCTGTTGCA, the switch fluorescence ratio is reported as 0.9709 ± 0.0037.
Work on GCCTTAATCT yielded a switch fluorescence ratio of 1.01 ± 0.038.
Work on GCCTTAGCTC yielded a switch fluorescence ratio of 1.04 ± 0.015.
Work on GCCTTCATGG yielded a switch fluorescence ratio of 0.98 ± 0.044.
GCCTTCCCGG was tested, and the switch fluorescence ratio was 1.9 ± 0.08.
For GCCTTCCGTT, the switch fluorescence ratio was 1.39 ± 0.49.
For GCCTTCGACT, the switch fluorescence ratio was 1.051 ± 0.0017.
Work on GCCTTGGACT yielded a switch fluorescence ratio of 0.976 ± 0.027.
GCCTTGTATG showed a switch fluorescence ratio of 0.976 ± 0.03.
With GCCTTTGCAT the switch fluorescence ratio was 1.04 ± 0.039.
Work on GCCTTTTCGA yielded a switch fluorescence ratio of 0.9827 ± 0.0025.
GCCTTTTGCC gave a switch fluorescence ratio of 1.044 ± 0.0094.
GCGAAAAAAG showed a switch fluorescence ratio of 0.99907 ± 0.00052.
For GCGAAAAACG, the switch fluorescence ratio was 1.03 ± 0.056.
Work on GCGAAAGGAA yielded a switch fluorescence ratio of 1.12 ± 0.14.
For GCGAAAGGCT, the switch fluorescence ratio was 1.03 ± 0.024.
GCGAAAGTCG was tested, and the switch fluorescence ratio was 1.018 ± 0.0069.
Sequence GCGAAATTAA has a switch fluorescence ratio of 0.997 ± 0.018.
Sequence GCGAACAACT has a switch fluorescence ratio of 1.014 ± 0.0087.
GCGAAGGGGT showed a switch fluorescence ratio of 1.02 ± 0.031.
GCGAATAAGT was tested, and the switch fluorescence ratio was 1.02 ± 0.031.
Work on GCGAATATCC yielded a switch fluorescence ratio of 1.11 ± 0.017.
For GCGACAAAAT, the switch fluorescence ratio was 1.11 ± 0.047.
With GCGAGAATAG the switch fluorescence ratio was 1 ± 0.014.
GCGAGCAATG showed a switch fluorescence ratio of 1.03 ± 0.027.
GCGAGCCTCC showed a switch fluorescence ratio of 1.3 ± 0.052.
Sequence GCGAGGAGTA has a switch fluorescence ratio of 1.01 ± 0.024.
For GCGAGGCCGT, the switch fluorescence ratio was 1 ± 0.056.
GCGAGGGAGT showed a switch fluorescence ratio of 1.02 ± 0.037.
In the case of GCGAGGGGTT, the switch fluorescence ratio is reported as 0.969 ± 0.035.
Work on GCGAGGGTCG yielded a switch fluorescence ratio of 1.01 ± 0.043.
GCGAGGTAGG gave a switch fluorescence ratio of 0.9669 ± 0.0043.
For GCGAGGTCGG, the switch fluorescence ratio was 1.03 ± 0.07.
Work on GCGAGGTGGG yielded a switch fluorescence ratio of 0.999 ± 0.049.
GCGATAGACG gave a switch fluorescence ratio of 0.99 ± 0.022.
GCGATCGGTT was tested, and the switch fluorescence ratio was 1.01 ± 0.049.
Sequence GCGATGGGTC has a switch fluorescence ratio of 1.06 ± 0.0091.
GCGATTAAAG showed a switch fluorescence ratio of 1 ± 0.014.
In the case of GCGATTTGTG, the switch fluorescence ratio is reported as 1.01 ± 0.037.
Work on GCGCAAATCG yielded a switch fluorescence ratio of 1.009 ± 0.01.
GCGCAAATTT gave a switch fluorescence ratio of 0.999 ± 0.017.
GCGCACCTTT was tested, and the switch fluorescence ratio was 1.01 ± 0.029.
GCGCATGGTA gave a switch fluorescence ratio of 1.02 ± 0.026.
Work on GCGCCTAGGG yielded a switch fluorescence ratio of 0.999 ± 0.018.
GCGCGATATT showed a switch fluorescence ratio of 2.17 ± 0.21.
Work on GCGCGCACAT yielded a switch fluorescence ratio of 1.01 ± 0.048.
For GCGCGGGGCC, the switch fluorescence ratio was 0.999 ± 0.032.
Work on GCGCGGGGTA yielded a switch fluorescence ratio of 0.997 ± 0.029.
With GCGCTATATG the switch fluorescence ratio was 1.16 ± 0.049.
GCGCTGTCCG gave a switch fluorescence ratio of 0.9959 ± 0.0087.
Sequence GCGCTTAAGT has a switch fluorescence ratio of 0.986 ± 0.043.
Sequence GCGGAAAAAG has a switch fluorescence ratio of 0.957 ± 0.011.
Work on GCGGAACGTG yielded a switch fluorescence ratio of 0.997 ± 0.04.
Work on GCGGAGAGAT yielded a switch fluorescence ratio of 1.27 ± 0.33.
GCGGAGAGTT gave a switch fluorescence ratio of 1.01 ± 0.019.
Sequence GCGGAGTCGG has a switch fluorescence ratio of 0.996 ± 0.053.
For GCGGATCAGC, the switch fluorescence ratio was 1.01 ± 0.059.
In the case of GCGGATTGTG, the switch fluorescence ratio is reported as 1.032 ± 0.0053.
Sequence GCGGCAAAAT has a switch fluorescence ratio of 1.01 ± 0.041.
With GCGGCAGGGC the switch fluorescence ratio was 1.05 ± 0.017.
Sequence GCGGCATGGT has a switch fluorescence ratio of 0.985 ± 0.0093.
In the case of GCGGCCGTTG, the switch fluorescence ratio is reported as 0.965 ± 0.064.
GCGGCGGCGT gave a switch fluorescence ratio of 1.002 ± 0.0023.
GCGGCTGTCG was tested, and the switch fluorescence ratio was 0.948 ± 0.085.
GCGGCTTAAC gave a switch fluorescence ratio of 1.02 ± 0.022.
For GCGGGACTGG, the switch fluorescence ratio was 1.04 ± 0.034.
GCGGGATGTC was tested, and the switch fluorescence ratio was 0.972 ± 0.02.
Sequence GCGGGCCCTT has a switch fluorescence ratio of 1.01 ± 0.012.
With GCGGGCCGGG the switch fluorescence ratio was 0.988 ± 0.058.
In the case of GCGGGCCTTT, the switch fluorescence ratio is reported as 1.015 ± 0.0066.
Work on GCGGGGACGC yielded a switch fluorescence ratio of 0.9982 ± 0.0021.
With GCGGGGATCT the switch fluorescence ratio was 1.038 ± 0.0091.
GCGGGGATTT showed a switch fluorescence ratio of 0.996 ± 0.023.
GCGGGGCTTA showed a switch fluorescence ratio of 0.98878 ± 0.00093.
Sequence GCGGGGGAAG has a switch fluorescence ratio of 1 ± 0.02.
For GCGGGGGACT, the switch fluorescence ratio was 0.997 ± 0.016.
Work on GCGGGGGCGG yielded a switch fluorescence ratio of 1.01 ± 0.018.
Sequence GCGGGGGGCC has a switch fluorescence ratio of 1.05 ± 0.1.
GCGGGGGGCG gave a switch fluorescence ratio of 1.01 ± 0.041.
Sequence GCGGGGGTAG has a switch fluorescence ratio of 1.17 ± 0.25.
For GCGGGGGTCT, the switch fluorescence ratio was 1.03 ± 0.1.
GCGGGGTGTG gave a switch fluorescence ratio of 1.016 ± 0.0033.
GCGGGTACTG showed a switch fluorescence ratio of 1.001 ± 0.0052.
Sequence GCGGGTAGTG has a switch fluorescence ratio of 1.02 ± 0.028.
GCGGGTATTG showed a switch fluorescence ratio of 0.964 ± 0.038.
For GCGGGTCATG, the switch fluorescence ratio was 0.981 ± 0.021.
For GCGGGTCTGG, the switch fluorescence ratio was 1.03 ± 0.022.
For GCGGGTTGCT, the switch fluorescence ratio was 1.25 ± 0.39.
Sequence GCGGGTTGGC has a switch fluorescence ratio of 1.08 ± 0.011.
GCGGGTTGGG gave a switch fluorescence ratio of 0.984 ± 0.047.
With GCGGTACTGC the switch fluorescence ratio was 0.999 ± 0.019.
GCGGTAGTTC gave a switch fluorescence ratio of 1.02 ± 0.023.
With GCGGTATGGG the switch fluorescence ratio was 0.9645 ± 0.0046.
GCGGTCACGG was tested, and the switch fluorescence ratio was 0.9974 ± 0.0092.
For GCGGTGACTG, the switch fluorescence ratio was 0.965 ± 0.018.
Work on GCGGTTAGCT yielded a switch fluorescence ratio of 1.04 ± 0.066.
GCGGTTAGGC was tested, and the switch fluorescence ratio was 0.968 ± 0.034.
In the case of GCGGTTGCTG, the switch fluorescence ratio is reported as 0.954 ± 0.04.
GCGGTTGTGC was tested, and the switch fluorescence ratio was 0.935 ± 0.051.
In the case of GCGTAAAAAG, the switch fluorescence ratio is reported as 1.03 ± 0.011.
GCGTAAAAGG showed a switch fluorescence ratio of 0.974 ± 0.034.
In the case of GCGTAAACGG, the switch fluorescence ratio is reported as 1.06 ± 0.022.
GCGTAAAGGA showed a switch fluorescence ratio of 1.02 ± 0.015.
In the case of GCGTAATCCG, the switch fluorescence ratio is reported as 1.02 ± 0.042.
Work on GCGTAATGTT yielded a switch fluorescence ratio of 0.999 ± 0.022.
Sequence GCGTACGGCG has a switch fluorescence ratio of 0.993 ± 0.054.
Sequence GCGTAGATGG has a switch fluorescence ratio of 1.006 ± 0.0087.
In the case of GCGTATGCCC, the switch fluorescence ratio is reported as 1.019 ± 0.0062.
For GCGTATGGGG, the switch fluorescence ratio was 0.977 ± 0.027.
In the case of GCGTATTGGC, the switch fluorescence ratio is reported as 1.03 ± 0.013.
In the case of GCGTCCAGTT, the switch fluorescence ratio is reported as 1.09 ± 0.12.
Work on GCGTCCGGGA yielded a switch fluorescence ratio of 1.21 ± 0.092.
GCGTCGCTTT showed a switch fluorescence ratio of 0.952 ± 0.046.
GCGTCGGTGT gave a switch fluorescence ratio of 0.98 ± 0.01.
Sequence GCGTCTATTG has a switch fluorescence ratio of 0.9987 ± 0.0051.
With GCGTCTGGGC the switch fluorescence ratio was 0.992 ± 0.015.
In the case of GCGTGATAGA, the switch fluorescence ratio is reported as 1.04 ± 0.017.
GCGTGCAATG gave a switch fluorescence ratio of 1.026 ± 0.0018.
GCGTGCAGGC gave a switch fluorescence ratio of 1.03 ± 0.023.
GCGTGCGGGC was tested, and the switch fluorescence ratio was 1.03 ± 0.043.
GCGTGCGGGG showed a switch fluorescence ratio of 1.028 ± 0.0098.
Sequence GCGTGCTGTA has a switch fluorescence ratio of 1.013 ± 0.006.
With GCGTGGAGGA the switch fluorescence ratio was 1.05 ± 0.026.
Sequence GCGTGGGGAA has a switch fluorescence ratio of 1.07 ± 0.036.
With GCGTGGGTTG the switch fluorescence ratio was 0.998 ± 0.048.
In the case of GCGTGTGGGG, the switch fluorescence ratio is reported as 1.02 ± 0.021.
Work on GCGTGTGGTC yielded a switch fluorescence ratio of 1.02 ± 0.039.
Work on GCGTGTGGTG yielded a switch fluorescence ratio of 1.02 ± 0.043.
GCGTGTTAGT was tested, and the switch fluorescence ratio was 1.023 ± 0.0021.
